In assay [1] the target is pH-GluA1 S845D phosphomimetic mutant (UniProt P19490).
The target of assay [2] is pH-GluA1 S831A phosphodeficient mutant (UniProt P19490). Briefly: co-IP; HEK293 cells co-transfected with HA-Nedd4-1 and pH-GluA1 constructs, lysed 48 h later (1% Triton X-100 lysis buffer with 10 mM N-ethylmaleimide); immunoprecipitation with anti-GFP antibodies on protein A-Sepharose overnight at 4 °C; blots with anti-HA and anti-GluA1; bound HA-Nedd4-1 quantified and normalized to the wild-type control.

In assay [3] the target is pH-GluA1 S831D phosphomimetic mutant (UniProt P19490). Described as above.
Assay [4] concerns the target pH-GluA1 S845A phosphodeficient mutant (UniProt P19490). The description is as above.
Assay [5] deals with pH-GluA1 S845D phosphomimetic mutant (UniProt P19490). Described as above.

In assay [1], “HA-Nedd4-1 (from UniProt P46934 1-1319) (enzyme)” returned an AMPA-induced ubiquitination of pH-GluA1 S845D in cortical neurons (IP: GFP, blot for ubiquitin), relative to wild type (% of WT control) of 65.2. The HA-Nedd4-1 binding, percent of WT control (% of WT control) in assay [2] came out at 74.1; in assay [3], 112; in assay [4], 90.9; in assay [5] it was 53.2.
